First the molecules themselves.
B2: His6-PadC_(Δ1-281) (domain or fragment, M. xanthus, UniProt Q1D3H3 282-489, looked up)
chain: PEPEQRLSGRVTTVLLPLEKLQDESAFKLRPEGDVSGLATDIARLGQLFPVDVRPAGEDRYQLVCGFRRVAALRFLKRDAVQARIHLRLSDEDALVMSLAEAIHATPVGPEVLEAKRDELEAQGRLSAAVRDMLEKALATEDTLAPEGVEEEIDADELAQEVAQRLGAINQDLSLLADVFAALDESRKAELLMQLRYSSELVTYLEGL
modifications: biotinylated with EZ-Link NHS-PEG4-Biotin where it was loaded on the sensor
notes: PadC (MXAN_4634) of Myxococcus xanthus lacking residues 1-281; holds the ParB-like nuclease (ParBC) domain; no cleavage of the tag is described; also called PadCΔN; N-terminally truncated variant of PadC; source: E. coli Rosetta(DE3)pLysS with pMO002, purified (HisTrap HP, MonoQ)

The experiment “His6-PadC_(Δ1-281)” concerns the target B2. The experiment can be described thus: BLI; BLItz, streptavidin (SAX) sensors loaded with biotinylated BacPC, PadCΔN as analyte; 25 mM HEPES/KOH pH 7.6, 100 mM KCl, 10 mM MgSO4, 1 mM DTT, 10 µM BSA, 0.01% Tween. Conditions: both partners purified.
In another experiment the target is T1, His6-ParA (M. xanthus, UniProt Q1CVJ3 1-283).
T1 construct: DNA partitioning ATPase ParA of Myxococcus xanthus; Only soluble with ATP, which restricted the analyses to the dimeric form; also called ParA·ATP; purified ParA; source: E. coli Rosetta(DE3)pLysS with pAH17, purified (HisTrap HP) in the presence of magnesium-ATP
T1 sequence (looked up): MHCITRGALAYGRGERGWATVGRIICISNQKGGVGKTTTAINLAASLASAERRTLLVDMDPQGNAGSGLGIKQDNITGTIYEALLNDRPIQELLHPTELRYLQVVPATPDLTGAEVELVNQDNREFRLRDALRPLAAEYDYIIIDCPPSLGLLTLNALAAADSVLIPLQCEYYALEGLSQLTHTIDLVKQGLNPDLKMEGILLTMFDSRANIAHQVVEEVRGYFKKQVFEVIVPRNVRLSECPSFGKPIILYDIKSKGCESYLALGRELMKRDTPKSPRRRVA
In words: BLI; BLItz, streptavidin (SAX) sensors loaded with biotinylated PadCΔN, ParA as analyte; BLItz binding buffer with 150 mM potassium glutamate, 5% glycerol and 10 mM ATP. Conditions: both partners purified. In general terms: In BLI a coated tip is dipped into the sample, and binding shifts an interference pattern.

B1: His6-BacP_(Δ1-115) (domain or fragment, M. xanthus, UniProt Q1D3H2 116-240, looked up)
chain: DVEPGRLPAERPAVVRPTAVTRPTATPARPTIPAARPMPPPPPSRPTPPPPPARPSAPPAVTRPSAPITRPGLGGLGSKPLPPPPPTRVERAEPQAGQAGSAEPPTPVLVGAGAKKKVVVKKKTR
modifications: biotinylated with EZ-Link NHS-PEG4-Biotin for loading on the sensor
notes: bactofilin BacP of Myxococcus xanthus lacking residues 1-115 (the C-terminal extension); no cleavage of the tag is described; also called BacPC; C-terminal fragment of BacP; source: E. coli Rosetta(DE3)pLysS with pIB154, purified (HisTrap HP)
In general, Kd refers to a measure of binding affinity in units of concentration. Lower therefore signals a tighter complex. Consider B1, for which the Kd in the experiment with His6-PadC_(Δ1-281) is 340 nM. B2 showed an equilibrium dissociation constant (Kd) with His6-ParA of 900 nM.

The values above are taken from article PMC5703909, “Bactofilin-mediated organization of the ParABS chromosome segregation system in Myxococcus xanthus” (Nature Communications, 2017).
